Target: the molecule itself
Test: time-resolved fluorescence anisotropy

B1: Dengue virus serotype 2 capsid protein (natural protein)
chain: MNNQRKKARNTPFNMLKRERNRVSTVQQLTKRFSLGMLQGRGPLKLFMALVAFLRFLTIPPTAGILKRWGTIKKSKAINVLRGFRKEIGRMLNILNRRRR
notes: also called DENV C; C protein
binding result: binds

Source: article PMC6720645, “Structural and Functional Properties of the Capsid Protein of Dengue and Related Flavivirus” (International Journal of Molecular Sciences, 2019)
